Target: G6PD Meyer (Arg219Gly) (human) (UniProt P11413)
Experiment: SEC; Superdex 200 Increase 10/300, 100 µg recombinant protein loaded, 50 mM Tris-HCl pH 7.5, 150 mM NaCl, 0.5 ml/min; column calibrated with Gel Filtration Standard (Biorad)

stoichiometry N: 2
Substance: G6PD Meyer (Arg219Gly) (from UniProt P11413-3 1-545) (enzyme)

Reference: paper PMC10709299
